For series [1], the system named is post-Amadori AGE formation, RNase Amadori intermediate. Kind of series: Interrupted (post-Amadori) ribose glycation assay, RNase. Type of series: biochemical, bovine. Particulars: up to 50 mM; protein not stated (FIG. 21). As to the method:
ELISA detection of AGE products. The general method of Engvall (1981, Methods Enzymol. 70:419-439) was used to perform the ELISA. Typically, glycated protein samples were diluted to approximately 1.5 ug/ml in 0.1 M sodium carbonate buffer of pH 9.5 to 9.7. The protein was coated overnight at room temperature onto 96-well polystyrene plates by pippetting 200 ul of the protein solution in each well (0.3 ug/well). After coating, the protein was washed from the wells with a saline solution containing 0.05% Tween-20. The wells were then blocked with 200 ul of 1% casein in carbonate buffer for 2 h at 37° C. followed by washing. Rabbit anti-AGE antibodies were diluted at a titer of about 1:350 in incubation buffer, and incubated for 1 h at 37° C., followed by washing. In order to minimize background readings, antibodies R479 used to detect glycated RNase were raised against glycated BSA, and antibodies R618 used to detect glycated BSA and glycated Hb were raised against glycated RNase. An alkaline phosphatase-conjugated antibody to rabbit IgG was then added as the secondary antibody at a titer of 1:2000 or 1:2500 (depending on lot) and incubated for 1 h at 37° C., followed by washing. The p-nitrophenylphosphate substrate solution was then added (200 ul/well) to the plates, with the absorbance of the released p-nitrophenolate being monitored at 410 nm with a Dynatech MR 4000 microplate reader.
Glycation Modifications Modification with ribose or glucose was generally done at 37° C. in 0.4 M phosphate buffer of pH 7.5 containing 0.02% sodium azide. The high buffer concentration was always used with 0.5 M ribose modifications. The solutions were kept in capped tubes and opened only to remove timed aliquots that were immediately frozen for later carrying out the various analyses. “Interrupted glycation” experiments were carried out by first incubating protein with the ribose at 37° C. for 8 or 24 h, followed by immediate and extensive dialysis against frequent cold buffer changes at 4° C. The samples were then reincubated by quickly warming to 37° C. in the absence of external ribose. Aliquots were taken and frozen at various intervals for later analysis. Due to the low molecular weight of RNase, protein concentrations were remeasured after dialysis even when low molecular weight cut-off dialysis tubing was used. An alternative procedure was also devised (see below) in which interruption was achieved by simple 100-fold dilution from reaction mixtures containing 0.5 M ribose. Protein concentrations were estimated from UV spectra. The difference in molar extinction between the peak (278 nm) and trough (250 nm) was used for RNase concentration determinations in order to compensate for the general increase in UV absorbance that accompanies glycation. Time-dependent UV-difference spectral studies were carried out to characterize the glycation contributions of the UV spectrum. […]
Glycation was first carried out by incubating protein (10 mg/ml) with 0.5 M ribose at 37° C. in 0.4 M phosphate buffer at pH 7.5 containing 0.2% sodium azide for 24 h in the absence of inhibitors. Glycation was then interrupted to remove excess and reversibly bound (Schiff base) sugar by extensive dialysis against frequent cold buffer changes at 4° C.

Series [2] relates to Sprague-Dawley rats, glomerular changes. Type of series: in vivo, rat. The settings on record: for Alcian Blue pH 1.0, scoring of glomerular staining (sulfated glycosaminoglycans) / Alcian Blue pH 2.5, scoring of glomerular staining (acidic glycosaminoglycans) / HS core protein (Ab BL-31), scoring of glomerular staining: 6 weeks, average with standard error; for Alcian Blue pH 1.0, scoring of glomerular staining (sulfated glycosaminoglycans) / Alcian Blue pH 2.5, scoring of glomerular staining (acidic glycosaminoglycans) / HS core protein (Ab BL-31), scoring of glomerular staining / Creat C-2wk / Creat C-6wk: n = 4; for Creat C-2wk: creatinine clearance at 2 weeks; for Creat C-6wk: creatinine clearance at 6 weeks; for average glomerular volume / decrease in heparan sulfate (HS) side-chain staining relative to controls / glomerular albumin deposition / cross-linking relative to controls / immunofluorescent glomerular staining for Heparan Sulfate Proteoglycan Core protein / immunofluorescent glomerular staining for Heparan Sulfate Proteoglycan side-chain / immunofluorescent glomerular staining for RSA / increase in glomerular volume (GV) relative to controls / Alcian blue pH 1.0 glomerular staining versus controls / increase in acidic glycosaminoglycans, Alcian Blue pH 2.5 staining: rat, in vivo. How it is done: Male Sprague-Dawley rats (Sasco, 100 g) were used. After a 1 week adaptation period, rats were placed in metabolic cages to obtain a 24 hour urine specimen for 2 days before administration of injections. Rats were then divided into experimental and control groups and given tail vein injections with either saline, unmodified RSA (50 mg/kg), Amadori-RSA (50 mg/kg), NaBH4-reduced Amadori-RSA (50 mg/kg), or AGE-RSA (50 mg/kg).
Rats injected with Amadori-RSA and AGE-RSA were then either left untreated, or further treated by the administration of either aminoguanidine (AG; 25 mg/kg), pyridoxamine (PM; 25 mg/kg), or a combination of AG and PM (10 mg/kg each) through the drinking water. Body weight and water intake of the rats were monitored weekly in order to adjust dosages. At the conclusion of the experimental study the rats were placed in metabolic cages to obtain 24 hour urine specimen for 2 days prior to sacrificing the animals.
After perfusion with saline, kidney sections were fixed in ice-cold 10% neutral buffered formalin. Paraffin-embedded tissue sections from all rat groups (n=4 per group) were processed for staining with Harris' alum hematoxylin and eosin (H&E), perodic acid/Schiff reagent (PAS), and alcian blue (pH 1.0 and pH 2.5) stains for histological examination. The alcian blue sections were scored by two investigators in a blinded fashion.
Parrafin-embedded sections were deparaffinized and then blocked with 10% goat serum in PBS for 30 min at room temperature. […] The sections were then rinsed for 30 min with PBS in the dark, mounted in aqueous mounting media for immunocytochemistry (Biomeda), and cover slipped. Sections were scored in a blinded fashion. Kidney sections were evaluated by the number and intensity of glomerular staining in 5 regions around the periphery of the kidney. Scores were normalized for the immunofluorescent score per 100 glomeruli with a scoring system of 0-3.
All animals studies were carried out in conformance with institutional guidelines for animal research protocols. Male Sprague-Dawley 100 g rats (Sasco Co., Omaha Nebr.) were used in these studies. After a 1 week adaptation period, rats were placed in metabolic cages for 2 days to get two 24 hour urine specimens before starting treatment. Rats were then given daily single tail vein injections for 6 weeks according to the following treatment groups: saline, unmodified RSA (50 mg/kg), Amadori-RSA (50 mg/kg), NaBH4-reduced Amadori-RSA (50 mg/kg), and AGE-RSA (50 mg/kg). Groups of rats injected with Amadori-RSA or AGE-RSA were also administered aminoguanidine (25 mg/kg/day), pyridoxamine (25 mg/kg/day), a combination of the two (10 mg/kg/day each), or with nothing added to the drinking water. Body weight and water intake of the rat were monitored weekly in order to adjust dosages. At the conclusion of the study, the rats were placed in metabolic cages for two days to get two 24 hour urine specimens before sacrificing the animals.
Total protein in urine was determined by Bio-Rad assay. Albumin in urine was determined by competitive ELISA using rabbit anti-rat serum albumin (Cappell) as primary antibody (1:2000) and goat anti-rabbit IgG (Sigma) as a secondary antibody (1:2000). Urine was tested with Multistix 8 SG (Miles) for glucose, ketone, specific gravity, blood, pH, protein, nitrite and leukocytes. Creatinine measurements were performed with a Beckman creatinine analyzer II. Intracardiac blood samples were collected before termination and were used in the determination of creatinine clearance, blood glucose (glucose oxidase, Sigma), fructosamine (nitroblue tetrazolium, Sigma), and glycated Hb (Glycotest II analytical boronate columns, Pierce).
After perfusion with saline, kidney sections were fixed in ice-cold 10% neutral buffered formalin. […]

Regarding `CC(=O)N[C@@H](CCCCN)C(=O)O` [N^60 -acetyl-L-lysine, N^α-acetyl-L-lysine], the “inhibition of post-Amadori AGE formation” value in series [1] is “failed to exhibit any significant inhibition of AGE formation”.

For the molecule “AGE-RSA: Amadori-RSA re-incubated in the absence of sugar for 2-3 days at 37° C.”, in series [2], the “Alcian Blue pH 1.0, scoring of glomerular staining (sulfated glycosaminoglycans)” value (“Alcian Blue pH 1.0, scoring” below) is recorded as 1.25 ± 0.14; the “Alcian Blue pH 2.5, scoring of glomerular staining (acidic glycosaminoglycans)” value (“Alcian Blue pH 2.5, scoring” for short) was 2.44± 0.21; the “HS core protein (Ab BL-31), scoring of glomerular staining” value (from here on “HS core protein (Ab BL-31), scoring”) is 238 ± 10; the “Creat C-2wk” value is 0.56 ± 0.04 ml/(min*100g). For the same molecule, in series [2], the “Creat C-6wk” value is on record as 0.86 ± 0.11 ml/(min*100g), the average glomerular volume entry is given as “significant increase in average glomeruli volume”, the “decrease in heparan sulfate (HS) side-chain staining relative to controls” value came out at 50% and the “glomerular albumin deposition / cross-linking relative to controls” value is “four-fold increase”. Moreover, in series [2], the “immunofluorescent glomerular staining for Heparan Sulfate Proteoglycan Core protein” value was “slightly reduced staining”, the “immunofluorescent glomerular staining for Heparan Sulfate Proteoglycan side-chain” value was “highly reduced staining”, the “immunofluorescent glomerular staining for RSA” value was “elevated staining” and the “increase in glomerular volume (GV) relative to controls” value amounted to 30%. For the same molecule, in series [2], the “Alcian blue pH 1.0 glomerular staining versus controls” value was “significantly decreased” and the “increase in acidic glycosaminoglycans, Alcian Blue pH 2.5 staining” value is 50-60%.

For the molecule “Amadori-RSA: rat serum albumin incubated with 0.5 M ribose for 12 hours, then dialyzed; negative for antigenic AGEs”, in series [2], the “Alcian Blue pH 1.0, scoring” value was 2.00 ± 0.41; the “Alcian Blue pH 2.5, scoring” value stood at 2.12 ± 0.12; the “HS core protein (Ab BL-31), scoring” value turned out to be 235 ± 12; the “Creat C-2wk” value is listed as 1.02 ± 0.10 ml/(min*100g). For the same molecule, in series [2], the “Creat C-6wk” value is 0.60 ± 0.10 ml/(min*100g), the average glomerular volume result was “significant increase in average glomeruli volume”, the “decrease in heparan sulfate (HS) side-chain staining relative to controls” value amounted to 25% and the “glomerular albumin deposition / cross-linking relative to controls” value is on record as “not different from the controls”. In addition, in series [2], the “immunofluorescent glomerular staining for Heparan Sulfate Proteoglycan Core protein” value is reported as “slightly reduced staining”, the “immunofluorescent glomerular staining for Heparan Sulfate Proteoglycan side-chain” value is given as “highly reduced staining”, the “immunofluorescent glomerular staining for RSA” value is listed as “elevated staining” and the “increase in glomerular volume (GV) relative to controls” value is 35%. For the same molecule, in series [2], the “Alcian blue pH 1.0 glomerular staining versus controls” value is on record as “no significant difference” and the “increase in acidic glycosaminoglycans, Alcian Blue pH 2.5 staining” value is 50-60%.

B1: RSA: purified rat serum albumin, unmodified (protein, UniProt P02770 25-608, looked up)
Albumin: EAHKSEIAHRFKDLGEQHFKGLVLIAFSQYLQKCPYEEHIKLVQEVTDFAKTCVADENAENCDKSIHTLFGDKLCAIPKLRDNYGELADCCAKQEPERNECFLQHKDDNPNLPPFQRPEAEAMCTSFQENPTSFLGHYLHEVARRHPYFYAPELLYYAEKYNEVLTQCCTESDKAACLTPKLDAVKEKALVAAVRQRMKCSSMQRFGERAFKAWAVARMSQRFPNAEFAEITKLATDVTKINKECCHGDLLECADDRAELAKYMCENQATISSKLQACCDKPVLQKSQCLAEIEHDNIPADLPSIAADFVEDKEVCKNYAEAKDVFLGTFLYEYSRRHPDYSVSLLLRLAKKYEATLEKCCAEGDPPACYGTVLAEFQPLVEEPKNLVKTNCELYEKLGEYGFQNAVLVRYTQKAPQVSTPTLVEAARNLGRVGTKCCTLPEAQRLPCVEDYLSAILNRLCVLHEKTPVSEKVTKCCSGSLVERRPCFSALTVDETYVPKEFKAETFTFHSDICTLPDKEKQIKKQTALAELVKHKPKATEDQLKTVMGDFAQFVDKCCKAADKDNCFATEGPNLVARSKEALA
Consider B1, for which, in series [2], the “Alcian Blue pH 1.0, scoring” value came out at 2.75 ± 0.14; the “Alcian Blue pH 2.5, scoring” value worked out at 1.38 ± 0.24; the “HS core protein (Ab BL-31), scoring” value is 226 ± 10; the “Creat C-2wk” value was 0.86 ± 0.16 ml/(min*100g). The “Creat C-6wk” value in series [2] is given as 0.70 ± 0.02 ml/(min*100g).

B2: NaBH4-reduced: Amadori-RSA reduced with NaBH4 (protein, UniProt P02770 25-608, looked up)
Albumin: B1 Albumin
modifications: ribose-glycated, NaBH4-reduced
Turning to B2, in series [2], the “Alcian Blue pH 2.5, scoring” value was found to be 1.81 ± 0.47; the “HS core protein (Ab BL-31), scoring” value was determined as 203 ± 14; the “Creat C-6wk” value is on record as 0.86 ± 0.07 ml/(min*100g).

Source of the values: patent publication US6716858B1, “Methods for inhibiting diabetic complications” (Kansas University Medical Center, priority 1995, dated 2004).
